Assay results as given in patent US20180118806A1 (MIT, published 2018).
“And” between values parts separate entries of the source, which are not always exact repeats. Equal entries are not always repeated.

Key:
Rantes (CCL5) [1] = target: T1, Rantes (CCL5) (UniProt P13501 24-91); assay: MST (FIG. 5)
T1 construct: In the yeast 2-hybrid screen the ligand construct is not described
T1 sequence (looked up): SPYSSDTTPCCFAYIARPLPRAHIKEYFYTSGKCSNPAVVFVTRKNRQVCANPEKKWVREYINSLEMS
Experimental: (§1) Each run of assay systematically measures 16 capillaries with identical concentration of a non-full length CCR5^QTY variant, but different concentrations of Rantes (Prospecbio http://www.prospecbio.com/Rantes/) with 2 duplicate measurements (Technical repeat 1 and 2).
(§2) Briefly, serial dilution of the target molecule Rantes was prepared in buffer to match the final buffer conditions in the reaction mix. The highest concentration of target was 6.0 μM, and the lowest 184.0 pM. About 5 μl of each dilution step were mixed with 5 μl of the fluorescent molecule—a partial water-soluble […] variant of CCR5 (e.g., CCR5-SZ218a). The final reaction mixture, which was filled in capillaries, contained a respective amount of target molecule (max. conc. 3.0 μM, min conc. 92.0 pM) and constant 5 nM fluorescent molecule.
(§3) The samples were analyzed on a Monolith NT.115 Pico at 25° C., with 12% LED power and 80% Laser power. No sticking of the fluorescent interaction partner to the capillary walls was indicated in the capillary scan.

Rantes (CCL5) [2] = target: T1, Rantes (CCL5); assay: MST (MicroScale Thermophoresis), labelled CCR5QTY variant constant, Rantes titrated (axis 0.01-10000 nM); left panel, fits of Tech. 1 and Tech. 2
Experimental: as §1, §2, §3

Rantes (CCL5) [3] = target: T1, Rantes (CCL5); assay: MST (MicroScale Thermophoresis), labelled CCR5QTY variant constant, Rantes titrated (axis 0.01-10000 nM); right panel, fits of Tech. 1 and Tech. 2
Experimental: as §1, §2, §3

Rantes (CCL5) [4] = target: T1, Rantes (CCL5); assay: fluorescent MST (FIG. 5)
Experimental: as §1, §2, §3

Rantes (CCL5) [5] = target: T1, Rantes (CCL5); assay: MST, run 1, technical repeat; dye-labelled variant at 5 nM, Rantes titrated (FIG. 7); run 1, second technical repeat
Experimental: as §1, §2, §3

Rantes (CCL5) [6] = target: T1, Rantes (CCL5); assay: MST, run 1, technical repeat; dye-labelled variant at 5 nM, Rantes titrated (FIG. 7); run 1, first technical repeat
Experimental: as §1, §2, §3

Rantes (CCL5) [7] = target: T1, Rantes (CCL5); assay: MST, run 3, technical repeat; run 3, first technical repeat
Experimental: as §1, §2, §3

Rantes (CCL5) [8] = target: T1, Rantes (CCL5); assay: MST, run 3, technical repeat; run 3, second technical repeat
Experimental: as §1, §2, §3

Rantes (CCL5) [9] = target: T1, Rantes (CCL5); assay: MST, run 2, technical repeat; run 2, second technical repeat
Experimental: as §1, §2, §3

Rantes (CCL5) [10] = target: T1, Rantes (CCL5); assay: MST, run 2, technical repeat; run 2, first technical repeat
Experimental: as §1, §2, §3

Rantes (CCL5) [11] = target: T1, Rantes (CCL5); assay: MST, run 2, technical repeat; dye-labelled variant at 5 nM, Rantes titrated
Experimental: as §1, §2, §3

Rantes (CCL5) [12] = target: T1, Rantes (CCL5); assay: MST, run 1, technical repeat; dye-labelled variant at 5 nM, Rantes titrated
Experimental: as §1, §2, §3

Rantes (CCL5) [13] = target: T1, Rantes (CCL5); assay: MST, run 1, rounded value of the two technical repeats
Experimental: as §1, §2, §3

Rantes (CCL5) [14] = target: T1, Rantes (CCL5); assay: MST, run 2, rounded value of the two technical repeats (FIG. 6)
Experimental: as §1, §2, §3

Rantes (CCL5) [15] = target: T1, Rantes (CCL5); assay: MST, run 3, LED power 15%, technical repeat
Experimental: as §1, §2

B1: SZ352a = CCR5QTY(352a) (receptor)
chain: MDYQVSSPIYDINYYTSEPCQKINVKQIAARQQPPQYSQTFTYGFTGNMQTTQTQINCKRLKSMTDIYLQNQAISDQYYQQTTPYWAHYAAAQWDFGNTMCQQQTGQYFTGYYSGTYYTTQQTTDRYLAVVHAVFALKARTTTYGTTTSTTTWTTATYASQPGTTYTRSQKEGLHYTCSSHFPYSQYQFWKNFQTLKITIQGQVQPQQTMVTCYSGTQKTLLRCRNEKKRHRAVRQTFTTMTTYYQYWAPYNTTQQLNTFQEFFGLNNCSSSNRLDQAMQVTETQGMTHCCTNPTIYAYVGEKFRNYLLVFFQKHIAKRFCKCCSIFQQEAPERASSVYTRSTGEQEISVGL
modifications: labelled with a dye in the MST assay (dye and site not stated for this variant)
notes: Full-length (352 aa) QTY variant of CCR5, used as control in MST; also called CC15-22; full-length (352 aa) CCR5^QTY variant
Rantes (CCL5) [1]
  Kd: 28 to 32 nM
Rantes (CCL5) [2]
  Kd: ~28 nM
Rantes (CCL5) [3]
  Kd: ~32 nM
Rantes (CCL5) [4]
  Kd: ~30 nM

B2: SZ190b = CCR5QTY(190b) (receptor)
chain: MDYQVSSPIYDINYYTSEPCQKINVKQIAARLQPPQYSQTFTFGFTGNMQTTQTQINCKRLKSMTDIYLQNQAISDQFFQQTTPYWAPYNTVQQQNTFQEFFGLNNCSSSNRLDQAMQVTETQGMTHCCTNPTIYAFVGEKFRNYLLVFFQKHIAKRFCKCCSIFQQEAPERASSVYTRSTGEQEISVGL
modifications: labelled with the dye DY647P1 in the MST assay (site not stated)
notes: Partial QTY variant of CCR5, 190 aa; Dye-labelled in MST; in the yeast 2-hybrid screen the fusion partner is not described; also called 5NA-17: Contig1; CCR5_SZ190b DY647P1
Rantes (CCL5) [5]
  Kd: 51.8 nM
Rantes (CCL5) [6]
  Kd: 46.5 nM
Rantes (CCL5) [7]
  Kd: 32 nM
Rantes (CCL5) [2]
  Kd: ~46 nM
Rantes (CCL5) [8]
  Kd: 54.9 nM
Rantes (CCL5) [9]
  Kd: 56.5 nM
Rantes (CCL5) [10]
  Kd: 27.4 nM
Rantes (CCL5) [3]
  Kd: ~48 nM

B3: SZ218a = CCR5QTY(218a) (receptor)
chain: MDYQVSSPIYDINYYTSEPCQKINVKQIAARQQPPQYSQTYTFGFTGNMQTTQTQINCKRLKSMTDIYLQNQAISDQFFQQTTPFWAHYAAAQWDFGNTMCQQQTGQYFTGYYSGTYYTTQQLNTFQEFFGLNNCSSSNRLDQAMQTTETQGMTHCCINPTTYAYVGEKFRNYLLVFFQKHIAKRFCKCCSIFQQEAPERASSVYTRSTGEQEISVGL
modifications: labelled with the dye DY647P1 in the MST assay (site not stated)
notes: Dye-labelled in MST; fusion partner in yeast 2-hybrid not described; also called 5NA-43; CCR5_SZ218a DY647P1
Rantes (CCL5) [11]
  Kd: 80.2 nM and 83.2 nM
Rantes (CCL5) [12]
  Kd: 74.5 nM and 76.2 nM
Rantes (CCL5) [13]
  Kd: ~75 nM
Rantes (CCL5) [14]
  Kd: ~80 nM
Rantes (CCL5) [15]
  Kd: 86.9 nM and 94.6 nM
